Measured values taken from patent US6416987B1, “Mutants of thymidylate synthase and uses thereof” (Sloan Kettering Institute for Cancer Research, priority 1997, dated 2002).
Numbering of substitutions follows the chain as printed. Names and notes keep the numbering of the source. “Also recorded” adds a separate entry of the source. Like-named read-outs stand apart in the source and are kept apart here.

B1: I108A: human TS mutant Ile108→Ala (protein)
chain: MPVAGSELPRRPLPPAAQERDAEPRPPHGELQYLGQIQHILRCGVRKDDRTGTGTLSVFGMQARYSLRDEFPLLTTKRVFWKGVLEELLWFIKGSTNAKELSSKGVKAWDANGSRDFLDSLGFSTREEGDLGPVYGFQWRHFGAEYRDMESDYSGQGVDQLQRVIDTIKTNPDDRRIIMCAWNPRDLPLMALPPCHALCQFYVVNSELSCQLYQRSGDMGLGVPFNIASYALLTYMIAHITGLKPGDFIHTLGDAHIYLNHIEPLKIQLQREPRPFPKLRILRKVGKIDDFKAEDFQIEGYNPHPTIKMEMAV
B2: F225W: human TS mutant Phe225→Trp (protein)
chain: B1 chain with A108I, F225W
B3: Tyr33 to His33: literature human TS mutant found in a human colon tumor cell line (protein, UniProt P04818 2-313, looked up, variant Y33H)
Thymidylate synthase: PVAGSELPRRPLPPAAQERDAEPRPPHGELQHLGQIQHILRCGVRKDDRTGTGTLSVFGMQARYSLRDEFPLLTTKRVFWKGVLEELLWFIKGSTNAKELSSKGVKIWDANGSRDFLDSLGFSTREEGDLGPVYGFQWRHFGAEYRDMESDYSGQGVDQLQRVIDTIKTNPDDRRIIMCAWNPRDLPLMALPPCHALCQFYVVNSELSCQLYQRSGDMGLGVPFNIASYALLTYMIAHITGLKPGDFIHTLGDAHIYLNHIEPLKIQLQREPRPFPKLRILRKVEKIDDFKAEDFQIEGYNPHPTIKMEMAV

Tests used:
[1] = tested on: human thymidylate synthase; assay: Kinetic parameters of wild-type and mutant human thymidylate synthases; type: biochemical
Experimental: TS activity was monitored spectrophotometrically at 340 nm as described (Wahba et al., 1961). Activity was determined at 30° C. The assay mixture contained 50 mM Tris.HCl, pH 7.4, 25 mM MgCl2, 6.5 mM formadehyde, 1 mM EDTA, 75 mM BME and 100 μM dUMP, CH2H4folate (100 μM) was added to initiate the reaction. Black cuvettes lacked CH2H4folate. A unit of activity is defined as the amount of enzyme required to convert 1 μmol of dUMP to dTMP/minutes at 30° C. Protein was determined from OD280=0.87×10^5 M^−1 cm^−1, which is equivalent to 1.43 OD280/mg of protein.
Michaelis constants (Km's) for CH2H4folate and dUMP were determined from initial velocity measurements, which were obtained by measuring the change in OD340 with a Shimadzu UV-2101 PC spectrophotometer. […] Steady-state kinetic parameters were subsequently obtained by a nonlinear least-squares fit of the data to the Michaelis-Menten equation using a computer program. The kcats were calculated by dividing Vmax by the estimated concentration of enzyme used in the reaction.

[2] = tested on: Mouse TS-negative cells (FSthy21); assay: Rescue of TS-negative cells by transfection of human TS cDNAs; type: cell-based; conditions: for TS catalytic function / complementation of growth of TS-negative cells: selective medium lacking thymidine; for FM3A TS cells surviving by transfection: selective medium without thymidine
Source text: Mouse TS-negative cells (FSthy21) were transfected with a plasmid (pcDNA3hTS*) encoding wild-type or a various mutant human TS enzyme by standard DOTAP transfection procedures. The host cells are deficient in TS, which are unable to survive without exogenous thymidine. […] In contrast, cells were unable to survive with transfection of other 11 human TS variants. For each surviving transfectant, at least 12 individual clones were isolated by soft agar or limiting dilution in 96-well plates. Those clones were expanded to cell lines by growth in normal media. Three cell clones for each transfectant were randomly selected for drug sensitivity assay.

human TS = human TS (Homo sapiens, UniProt P04818, Y33H); conditions: vs wild-type TS; cited from earlier work
[3] = CH2H4folate 3 mM, read-out: Km (dUMP)
[4] = dUMP fixed at 200 μM, read-out: Km (CH2H4folate)

Sequence of human TS (P04818 whole entry Y33H): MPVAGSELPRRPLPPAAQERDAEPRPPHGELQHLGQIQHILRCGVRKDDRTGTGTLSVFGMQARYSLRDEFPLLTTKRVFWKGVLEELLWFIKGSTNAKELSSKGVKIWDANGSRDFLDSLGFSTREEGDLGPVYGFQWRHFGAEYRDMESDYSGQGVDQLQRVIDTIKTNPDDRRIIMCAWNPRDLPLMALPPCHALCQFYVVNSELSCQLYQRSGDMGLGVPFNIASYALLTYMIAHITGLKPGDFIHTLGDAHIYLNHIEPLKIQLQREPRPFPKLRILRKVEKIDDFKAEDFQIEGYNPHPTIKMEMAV

Molecule	increase of Km for CH2H4folate over wild-type [1] [fold]	increase of Km for dUMP over wild-type [1] [fold]	kcat [1] [s⁻¹]	kcat lower than wild-type TS [1] [fold]	Km [1, 3] [µM]	Km [1, 4] [µM]	TS catalytic function / complementation of growth of TS-negative cells [2]	FM3A TS cells surviving by transfection [2]	drop in kcat (human TS) [fold]
B1	22	4	0.22	3	15	746	able to complement growth; also recorded: functional	yes	
B2	4		2.3		3.6	165	able to complement growth; also recorded: active enzymes	yes	
B3									8
